Assay results: publication PMC3417467
Like-named read-outs stand apart in the source and are kept apart here.

B1: cyclopeptide-1 c-(-fEANE-) (peptide)
peptide: FEANE
HELM: PEPTIDE1{[dF].E.A.N.E}$PEPTIDE1,PEPTIDE1,1:R1-5:R2$$$V2.0
SMILES: C[C@@H]1NC(=O)[C@H](CCC(=O)O)NC(=O)[C@@H](Cc2ccccc2)NC(=O)[C@H](CCC(=O)O)NC(=O)[C@H](CC(N)=O)NC1=O
B2: cyclopeptide-3 c-(-FEaNE-) (peptide)
peptide: FEANE
HELM: PEPTIDE1{F.E.[dA].N.E}$PEPTIDE1,PEPTIDE1,1:R1-5:R2$$$V2.0
SMILES: C[C@H]1NC(=O)[C@H](CCC(=O)O)NC(=O)[C@H](Cc2ccccc2)NC(=O)[C@H](CCC(=O)O)NC(=O)[C@H](CC(N)=O)NC1=O
B3: cyclopeptide-4 c-(-FEAnE-) (peptide)
peptide: FEANE
HELM: PEPTIDE1{F.E.A.[dN].E}$PEPTIDE1,PEPTIDE1,1:R1-5:R2$$$V2.0
SMILES: C[C@@H]1NC(=O)[C@H](CCC(=O)O)NC(=O)[C@H](Cc2ccccc2)NC(=O)[C@H](CCC(=O)O)NC(=O)[C@@H](CC(N)=O)NC1=O
B4: cyclopeptide-5 c-(-FEANe-) (peptide)
peptide: FEANE
HELM: PEPTIDE1{F.E.A.N.[dE]}$PEPTIDE1,PEPTIDE1,1:R1-5:R2$$$V2.0
SMILES: C[C@@H]1NC(=O)[C@H](CCC(=O)O)NC(=O)[C@H](Cc2ccccc2)NC(=O)[C@@H](CCC(=O)O)NC(=O)[C@H](CC(N)=O)NC1=O
B5: cyclopeptide-7 c-(-RGDlA-) (peptide)
peptide: RGDLA
HELM: PEPTIDE1{R.G.D.[dL].A}$PEPTIDE1,PEPTIDE1,1:R1-5:R2$$$V2.0
SMILES: CC(C)C[C@H]1NC(=O)[C@H](CC(=O)O)NC(=O)CNC(=O)[C@H](CCCNC(=N)N)NC(=O)[C@H](C)NC1=O
B6: cyclopeptide-2 c-(-FeANE-) (peptide)
peptide: FEANE
HELM: PEPTIDE1{F.[dE].A.N.E}$PEPTIDE1,PEPTIDE1,1:R1-5:R2$$$V2.0
SMILES: C[C@@H]1NC(=O)[C@@H](CCC(=O)O)NC(=O)[C@H](Cc2ccccc2)NC(=O)[C@H](CCC(=O)O)NC(=O)[C@H](CC(N)=O)NC1=O

Experiments:
Experiment in all cases: competitive cell adhesion assay
[1] = target: integrins on WM-115 cells (mainly integrin α5β1, αVβ3, and αVβ5)
[2] = target: integrins on WM-115 cells (mainly integrin α5β1, αVβ3, and αVβ5); remark: listed apart in the source
[3] = target: integrins on WM-115 cells (mainly integrin α5β1, αVβ3, and αVβ5); remark: listed apart in the source
[4] = target: integrins on WM-115 cells (mainly integrin α5β1, αVβ3, and αVβ5); remark: listed apart in the source
[5] = target: integrins on WM-115 cells (mainly integrin α5β1, αVβ3, and αVβ5); remark: listed apart in the source
[6] = target: integrins on WM-115 cells (mainly integrin α5β1, αVβ3, and αVβ5); remark: listed apart in the source

Row | Binder | IC50 [1] | IC50 [2] | IC50 [3] | IC50 [4] | IC50 [5] | IC50 [6]
1 | B1 | > 1000 µM | 43 to 340 µM | > 1000 µM | – | – | –
2 | B2 | > 1000 µM | > 1000 µM | > 1000 µM | – | – | –
3 | B3 | > 1000 µM | > 1000 µM | > 1000 µM | – | – | –
4 | B4 | > 1000 µM | > 1000 µM | > 1000 µM | – | – | –
5 | ANFEANELFFISEDV [linear peptide 6 (…)] | > 1000 µM | 9 µM | 239 µM | – | – | –
6 | B5 | 2.39 µM | – | – | 0.88 µM | 0.67 µM | 1.65 µM
7 | B6 | > 1000 µM | 30 to 530 µM | 54 to 430 µM | – | – | –
